The data set addresses T1, variant nuclease SEQ ID NO: 53 (P14R, D32R, I61R, E311R, T338G, E736G).
T1 chain: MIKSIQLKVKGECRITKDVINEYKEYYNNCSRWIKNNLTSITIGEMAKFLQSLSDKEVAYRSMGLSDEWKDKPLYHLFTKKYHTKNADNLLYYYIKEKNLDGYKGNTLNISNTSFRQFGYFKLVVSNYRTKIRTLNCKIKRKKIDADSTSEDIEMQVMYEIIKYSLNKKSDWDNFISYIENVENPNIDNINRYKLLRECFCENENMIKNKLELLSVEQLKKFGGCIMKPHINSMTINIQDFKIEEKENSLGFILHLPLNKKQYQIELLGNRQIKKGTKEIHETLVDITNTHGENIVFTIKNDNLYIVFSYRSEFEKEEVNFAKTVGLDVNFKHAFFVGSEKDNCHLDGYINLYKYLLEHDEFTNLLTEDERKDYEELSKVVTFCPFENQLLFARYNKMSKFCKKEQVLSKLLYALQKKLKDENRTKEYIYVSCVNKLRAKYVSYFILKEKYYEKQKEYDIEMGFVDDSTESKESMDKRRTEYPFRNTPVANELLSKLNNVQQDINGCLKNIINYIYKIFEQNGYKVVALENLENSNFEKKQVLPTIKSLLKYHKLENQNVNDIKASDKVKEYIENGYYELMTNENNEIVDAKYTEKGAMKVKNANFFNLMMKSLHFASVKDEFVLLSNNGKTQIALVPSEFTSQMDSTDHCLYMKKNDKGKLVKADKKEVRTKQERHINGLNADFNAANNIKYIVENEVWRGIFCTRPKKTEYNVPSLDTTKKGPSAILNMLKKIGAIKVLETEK
The experiment in a line: cell_activity; nearly 0.6; HEK293T; PAM 5'-TTTG-3'. Particulars: tags: pcDNA3.1 expression. Here is the method: Approximately 16 hours prior to transfection, 25,000 HEK293T cells in DMEM/10% FBS+Pen/Strep (D10 media) were plated into each well of a 96-well plate. On the day of transfection, the cells were 70-90% confluent. For each well to be transfected, a mixture of Lipofectamine 2000™ and Opti-MEM™ was prepared and incubated at room temperature for 5 minutes (Solution 1). After incubation, the Lipofectamine 2000™:Opti-MEM™ mixture was added to a separate mixture containing nuclease plasmid, RNA guide plasmid, and Opti-MEM™ (Solution 2). In the case of negative controls, the RNA guide plasmid was not included in Solution 2. Solutions 1 and 2 were mixed by pipetting up and down, then incubated at room temperature for 25 minutes. Following incubation, the Solution 1 and 2 mixture was added dropwise to each well of a 96-well plate containing the cells. Approximately 72 hours post transfection, cells were trypsinized by adding TrypLE™ to the center of each well and incubating at 37° C. for approximately 5 minutes. D10 media was then added to each well and mixed to resuspend cells. The resuspended cells were centrifuged at 500 g for 10 minutes to obtain a pellet, and the supernatant was discarded. The cell pellet was then resuspended in QuickExtract™ buffer (Lucigen®), and cells were incubated at 65° C. for 15 minutes, 68° C. for 15 minutes, and 98° C. for 10 minutes. […]

B1: VEGFA_T1 crRNA ; VEGFA_T1 target (ssRNA ; dsDNA)
RNA: CCUGUUGUGAAUACUCUUUUAUAGGUAUCAAACAACUCCUGGUGAAAGGCAGCCCU
DNA 1: TCCTGGTGAAAGGCAGCCCT
DNA 2: AGGGCTGCCTTTCACCAGGA
B1: the activity was approximately 0.6 indel ratio.

The values are drawn from patent US20240035010, “COMPOSITIONS COMPRISING A VARIANT POLYPEPTIDE AND USES THEREOF” (Arbor Biotechnologies, Inc., published 2024).
